In patent US20170114420:

Assays:
Assay in all cases: ELONA
[1] = test system: Norovirus GII.1 VLP, capsid protein VP1 (Norovirus GII.1); conditions: 1 uM aptamer, RT
[2] = test system: Norovirus GII.12 VLP, capsid protein VP1 (Norovirus GII.12); conditions: 1 uM aptamer, RT
[3] = test system: Norovirus GII.3 VLP, capsid protein VP1 (Norovirus GII.3); conditions: 1 uM aptamer, RT
[4] = test system: Norovirus GI.7 VLP, capsid protein VP1 (Norovirus GI.7); conditions: 1 uM aptamer, RT
[5] = test system: Norovirus GII.7 VLP, capsid protein VP1 (Norovirus GII.7); conditions: 1 uM aptamer, RT
[6] = test system: Norovirus GII.4 (Grimsby) VLP, capsid protein VP1 (Norovirus GII.4 Grimsby); conditions: 1 uM aptamer, RT
[7] = test system: Norovirus GI.8 VLP, capsid protein VP1 (Norovirus GI.8); conditions: 1 uM aptamer, RT
[8] = test system: Norovirus GI.4 VLP, capsid protein VP1 (Norovirus GI.4); conditions: 1 uM aptamer, RT
[9] = test system: Norovirus GII.4 (Houston) VLP, capsid protein VP1 (Norovirus GII.4 Houston); conditions: 1 uM aptamer, RT
[10] = test system: Norovirus GI.6 VLP, capsid protein VP1 (Norovirus GI.6); conditions: 1 uM aptamer, RT
[11] = test system: Norovirus GII.17 VLP, capsid protein VP1 (Norovirus GII.17); conditions: 1 uM aptamer, RT
[12] = test system: Norovirus GII.6 VLP, capsid protein VP1 (Norovirus GII.6); conditions: 1 uM aptamer, RT
[13] = test system: Norovirus GII.4 (Sydney) VLP, heat-denatured (80 C, 5 min) (Norovirus GII.4 Sydney); conditions: VLP denatured 80 C 5 min

AGTATACGTATTACCTGCAGCCACCAGTGTGTTGAGGTTTGAGCACACTGATAGAGTGTCACGATATCTCGGAGATCTTGC [SMV-19]
binding signal [1]: 7.1 T/N ratio
binding signal [2]: 1.5 T/N ratio
binding signal [3]: 1.7 T/N ratio
binding signal [4]: 10.3 T/N ratio
binding signal [5]: 4 T/N ratio
binding signal [6]: 9.6 T/N ratio
binding signal [7]: 1.7 T/N ratio
binding signal [8]: 1.7 T/N ratio
binding signal [9]: 12.5 T/N ratio
binding signal [10]: 3.7 T/N ratio
binding signal [11]: 3 T/N ratio
binding signal [12]: 1.8 T/N ratio

AGTATACGTATTACCTGCAGCCATCTGTGTGAAGACTATATGGCGCTCACATATTTCTTTCCGATATCTCGGAGATCTTGC [SMV-25]
binding signal [1]: 9.4 T/N ratio
binding signal [2]: 1.9 T/N ratio
binding signal [3]: 5.4 T/N ratio
binding signal [4]: 3.5 T/N ratio
binding signal [5]: 9.1 T/N ratio
binding signal [6]: 10.4 T/N ratio
binding signal [7]: 6.2 T/N ratio
binding signal [8]: 5.6 T/N ratio
binding signal [9]: 11 T/N ratio
binding signal [10]: 2.4 T/N ratio
binding signal [11]: 2 T/N ratio
binding signal [12]: 7.3 T/N ratio

AGTATACGTATTACCTGCAGCCCATGTTTTGTAGGTGTAATAGGTCATGTTAGGGTTTCTGCGATATCTCGGAGATCTTGC [SMV-21]
binding signal [1]: 8.6 T/N ratio
binding signal [2]: 6.6 T/N ratio
binding signal [3]: 11.8 T/N ratio
binding signal [4]: 8.1 T/N ratio
binding signal [5]: 13.5 T/N ratio
binding signal [6]: 6.4 T/N ratio
binding signal [7]: 4.6 T/N ratio
binding signal [8]: 4.3 T/N ratio
binding signal [9]: 11.3 T/N ratio
binding signal [10]: 3.8 T/N ratio
binding signal [11]: 12.2 T/N ratio
binding signal [12]: 3 T/N ratio

AGTATACGTATTACCTGCAGCTGACCGAGTGTCTGGTCATTTTCGATGTCTGTTGTTAGGCCGATATCTCGGAGATCTTGC [SMV-26]
binding signal [1]: 2.1 T/N ratio
binding signal [2]: 2.4 T/N ratio
binding signal [3]: 2.4 T/N ratio
binding signal [4]: 1.8 T/N ratio
binding signal [5]: 2.8 T/N ratio
binding signal [6]: 3.2 T/N ratio
binding signal [7]: 1.2 T/N ratio
binding signal [8]: 1.1 T/N ratio
binding signal [9]: 2.8 T/N ratio
binding signal [10]: 1.5 T/N ratio
binding signal [11]: 1.3 T/N ratio
binding signal [12]: 2.8 T/N ratio

AGTATACGTATTACCTGCAGCTGGGAAGAGGTCCGGTAAATGCAGGGTCAGCCCGGAGAGCGATATCTCGGAGATCTTGC [M6-2]
binding signal (VLP/no VLP ratio) [1]: 4.52
binding signal (VLP/no VLP ratio) [2]: 5.55
binding signal (VLP/no VLP ratio) [3]: 3.16
binding signal (VLP/no VLP ratio) [4]: 7.56
binding signal (VLP/no VLP ratio) [5]: 8.02
binding signal (VLP/no VLP ratio) [6]: 11.5
binding signal (VLP/no VLP ratio) [7]: 4.55
binding signal (% of untreated VLP signal) [13]: 1.98
binding signal (VLP/no VLP ratio) [8]: 3.36
binding signal (VLP/no VLP ratio) [9]: 13
binding signal (VLP/no VLP ratio) [10]: 2.75
binding signal (VLP/no VLP ratio) [11]: 5.24
binding signal (VLP/no VLP ratio) [12]: 4.4

AGTATACGTATTACCTGCAGCTGTTTATGGGGATAAACGTATCTAATTCGTGTACTAATCACGATATCTCGGAGATCTTGC [M1]
binding signal (VLP/no VLP ratio) [1]: 3.59
binding signal (VLP/no VLP ratio) [2]: 4.47
binding signal (VLP/no VLP ratio) [3]: 2.94
binding signal (VLP/no VLP ratio) [4]: 7.32
binding signal (VLP/no VLP ratio) [5]: 7.47
binding signal (VLP/no VLP ratio) [6]: 7.59
binding signal (VLP/no VLP ratio) [7]: 2.61
binding signal (VLP/no VLP ratio) [8]: 3.17
binding signal (VLP/no VLP ratio) [9]: 10.4
binding signal (VLP/no VLP ratio) [10]: 1.98
binding signal (VLP/no VLP ratio) [11]: 3.94
binding signal (VLP/no VLP ratio) [12]: 2.38
